The results in this text go back to US20260009052, “CAS12 PROTEINS AND USES THEREOF” (GUANGZHOU REFORGENE MEDICINE CO., LTD., published 2026).

Data set [1] deals with T1, C12-279 Mut-02-1-426-846-858-860 (C12-279-V4) (synthetic construct, I1R,Q186R,D352R,D426R,846R,858R,L860R).
T1 chain: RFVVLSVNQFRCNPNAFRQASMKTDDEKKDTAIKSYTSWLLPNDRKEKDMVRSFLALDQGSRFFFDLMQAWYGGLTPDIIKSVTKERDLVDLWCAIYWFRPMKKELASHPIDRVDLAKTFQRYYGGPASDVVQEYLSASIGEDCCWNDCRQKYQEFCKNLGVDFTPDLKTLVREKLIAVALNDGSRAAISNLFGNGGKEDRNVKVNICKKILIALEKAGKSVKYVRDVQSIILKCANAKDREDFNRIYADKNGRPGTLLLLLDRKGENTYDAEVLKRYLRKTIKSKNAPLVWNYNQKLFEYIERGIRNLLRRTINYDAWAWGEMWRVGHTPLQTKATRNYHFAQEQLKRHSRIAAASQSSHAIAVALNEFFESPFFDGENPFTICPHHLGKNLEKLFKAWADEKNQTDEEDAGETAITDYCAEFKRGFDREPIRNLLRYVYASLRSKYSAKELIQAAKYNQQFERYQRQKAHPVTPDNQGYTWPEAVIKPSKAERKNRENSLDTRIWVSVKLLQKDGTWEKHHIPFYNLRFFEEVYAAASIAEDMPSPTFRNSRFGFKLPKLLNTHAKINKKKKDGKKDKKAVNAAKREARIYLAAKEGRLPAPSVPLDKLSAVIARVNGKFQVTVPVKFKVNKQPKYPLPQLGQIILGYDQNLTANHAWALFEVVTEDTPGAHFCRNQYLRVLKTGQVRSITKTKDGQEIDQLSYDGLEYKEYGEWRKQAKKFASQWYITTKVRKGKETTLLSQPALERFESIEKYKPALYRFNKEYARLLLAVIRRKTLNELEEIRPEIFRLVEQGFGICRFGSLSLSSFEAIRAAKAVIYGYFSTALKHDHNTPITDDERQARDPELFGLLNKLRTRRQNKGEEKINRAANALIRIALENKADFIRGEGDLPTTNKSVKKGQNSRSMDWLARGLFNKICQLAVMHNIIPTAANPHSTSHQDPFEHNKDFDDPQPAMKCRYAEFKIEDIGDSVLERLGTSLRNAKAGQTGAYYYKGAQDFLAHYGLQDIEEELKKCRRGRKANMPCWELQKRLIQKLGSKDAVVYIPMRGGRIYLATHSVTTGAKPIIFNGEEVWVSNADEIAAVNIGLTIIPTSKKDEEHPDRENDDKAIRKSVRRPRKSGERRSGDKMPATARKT
Briefly: cell_activity; PAM TTG; mutant PAM 5'-WTN-3' by Example 17.

In data set [2] the target is T2, C12-279 Q186R (Mut-01) (synthetic construct, Q186R).
T2 chain: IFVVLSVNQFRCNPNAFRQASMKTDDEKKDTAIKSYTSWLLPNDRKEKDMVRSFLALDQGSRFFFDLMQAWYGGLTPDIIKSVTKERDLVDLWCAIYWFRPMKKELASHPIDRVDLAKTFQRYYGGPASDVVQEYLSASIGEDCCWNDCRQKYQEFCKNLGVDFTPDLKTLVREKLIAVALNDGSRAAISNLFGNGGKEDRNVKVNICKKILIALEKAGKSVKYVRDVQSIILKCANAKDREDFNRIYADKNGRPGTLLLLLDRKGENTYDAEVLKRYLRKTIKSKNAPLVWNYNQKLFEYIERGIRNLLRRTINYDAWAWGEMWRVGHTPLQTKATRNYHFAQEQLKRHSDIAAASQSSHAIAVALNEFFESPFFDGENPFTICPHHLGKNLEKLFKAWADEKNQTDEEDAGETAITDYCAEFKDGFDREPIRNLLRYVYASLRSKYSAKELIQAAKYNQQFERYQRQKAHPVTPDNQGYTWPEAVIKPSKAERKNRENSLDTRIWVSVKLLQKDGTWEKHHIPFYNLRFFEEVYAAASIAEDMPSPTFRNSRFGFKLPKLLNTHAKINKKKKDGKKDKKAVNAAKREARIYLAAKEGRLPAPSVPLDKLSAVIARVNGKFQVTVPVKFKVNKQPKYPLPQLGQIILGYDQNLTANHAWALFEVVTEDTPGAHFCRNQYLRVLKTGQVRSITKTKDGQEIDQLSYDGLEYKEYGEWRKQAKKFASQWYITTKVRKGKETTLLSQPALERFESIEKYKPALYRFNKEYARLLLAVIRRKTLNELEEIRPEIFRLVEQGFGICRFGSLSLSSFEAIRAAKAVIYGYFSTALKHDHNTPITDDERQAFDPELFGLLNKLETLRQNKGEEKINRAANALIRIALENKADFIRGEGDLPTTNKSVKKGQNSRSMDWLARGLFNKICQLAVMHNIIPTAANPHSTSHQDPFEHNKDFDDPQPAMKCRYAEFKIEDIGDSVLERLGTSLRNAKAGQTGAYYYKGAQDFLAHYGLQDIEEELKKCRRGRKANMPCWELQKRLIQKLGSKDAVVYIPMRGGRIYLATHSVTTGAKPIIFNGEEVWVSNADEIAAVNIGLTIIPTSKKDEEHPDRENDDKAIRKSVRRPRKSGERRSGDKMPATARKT
Description: cell_activity; PAM TTG; +/-0.32. Here is the method:
Transfection: transfection was performed 12-14 h after plating. 1.5 μL PEI (Yeasen Biotechnology, 40815ES03, Polyethylenimine Linear (PEI) MW25000) and 500 ng mutation clone plasmid were added to 100 μL Opti-MEM per well of the 24-well plate, mixed, and added to the NAAN cell line for cell transfection after placing at room temperature for 20 min. After overnight transfection, a fresh culture medium was replaced, and the culture was continued for 72 h, followed by flow cytometry. Editing efficiencies of different mutant clones were characterized by the proportion of GFP-positive cells.
Editing efficiency of some selected mutants was tested in Reporter3 cell line using the same manner as described for the NAAN reporter system, except that the cell line was changed from NAAN cell line to Reporter3 cell line.

B1: C12-279 Reporter3 sgRNA ; Reporter3 target (ssRNA ; dsDNA)
RNA: GUAAUGCGUCUCCCAUUGACGCCUCACCUCGCGACGCAAUGAUG
DNA 1: CTCACCTCGCGACGCAATGATG
DNA 2: CATCATTGCGTCGCGAGGTGAG
As for B1, the binding signal is 3.88 fold of C12-279 in data set [1] and 1.6 fold of C12-279 in data set [2].
